From publication PMC4919504

What was measured:
Assay in all cases: anti-GFP IP, LC-MS/MS spectral counts
Numa1 = Numa1 (UniProt Q14980); settings: sites S1448
Vimentin = Vimentin (UniProt P08670); settings: reference: S1448A GFP-Scribble; sites S1448
Git1 = Git1 (UniProt Q9Y2X7); settings: reference: S1448A GFP-Scribble; sites S1448
Beta-pix = Beta-pix (UniProt Q14155); settings: reference: S1448A GFP-Scribble; sites S1448
[1] = reference: wild type GFP-Scribble

other: spectral counts (Numa1; [1])	other: spectral counts (Numa1; reference: S1448A GFP-Scribble)	other: spectral counts (Vimentin)	other: spectral counts (Git1)	other: spectral counts (Beta-pix)	Substance
weaker; reference 34	–	–	–	–	Scribble (from UniProt Q14160) S1448A GFP-Scribble
same; reference 34	stronger; reference 8	same; reference 277	same; reference 72	same; reference 49	Scribble (from UniProt Q14160) S1448D GFP-Scribble
